Laboratory results as given in patent US20220041697A1 (NEW YORK UNIVERSITY, published 2022).

Key:
Test in all cases: binding of antibody dilutions to peptides (FIG. 1)
[1] = biological target: T1, Peptide Tau 386-408[phospho-serine396,404] (phosphoserine at positions 11 and 19 of SEQ ID NO: 1 (Ser396 and Ser404 of SEQ ID NO: 25))
T1 construct: For immunisation it was conjugated to KLH via a cysteine residue; also called P-Ser396, P-Ser404; diphosphorylated peptide

[2] = biological target: T2, Tau 386-408 peptide phosphorylated only on serine 404 (phosphoserine at position 19 of SEQ ID NO: 1 (Ser404 of SEQ ID NO: 25); serine 11 not phosphorylated)
T2 construct: also called P-Ser404; P-Ser404 peptide
T2 sequence (peptide, as listed by the source): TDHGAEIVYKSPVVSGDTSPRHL

[3] = biological target: T3, non-phosphorylated Tau peptide (Tau386-408) (none (serines 11 and 19 of SEQ ID NO: 1 not phosphorylated))
T3 construct: also called No-P; non-phosphorylated peptide

Measured: binding result

B1: Tau mAb 8B2D1 (antibody, V domains shown)
VH: EVQLQQSGPELVKPGASVKMSCKASGYTFTSYVIHWVKQKPGQGLEWIGYIYPYNDGTIYNEKFKGKATLTSDTSSSTVYMELISLTAEDSAVYWCVRERDNYGVYWGQGTTLTVSS
VL: DVLLTQTPLSLPVSLGDQASISCRSSQSIVHSNGNTYLEWYLQKPGQSPELLIYKVSNRFYGVPDRFSGSGSGTDFTLKISRVEAEDLGVYYCFQDSHIPYTFGGGTRLEIK
notes: Mouse (BALB/c) hybridoma monoclonal antibody; also called monoclonal antibody 8B2D1; anti-Tau 8B2D1 mAb
binds: all assays above
